Data published in US11926665B2, “Methods of treating cancer with anti-TIM-3 antibodies” (TESARO, INC., priority 2017, dated 2024).

Key:
[1] = Phase 1 study, serum pharmacokinetics after first dose; type: in vivo; conditions: patients, first dose 0.03-10 mg/kg, monitored for two weeks, FIG. 6A
Excerpt: (§1) This example describes a multicenter, open-label, first-in-human Phase 1 study evaluating a TIM-3 binding agent (an anti-TIM-3 antibody), in patients with tumors. Specifically the dosage effects in patients with advanced solid tumors treated with a particular TIM-3 binding agent. A TIM-3 binding agent (TSR-022) as described in the present study comprises a humanized monoclonal anti-TIM-3 antibody comprising a heavy chain whose amino acid sequence comprises SEQ ID NO: 3 and a light chain whose amino acid sequence comprises SEQ ID NO:4 are evaluated. This anti-TIM-3 antibody utilizes a human IGHG4*01 heavy chain gene, and a human IGKC*01 kappa light chain gene, as scaffolds. Further, there is a single Ser to Pro point mutation in the hinge region of the IgG4 heavy chain at the canonical S228 position.
The study comprises several parts: dose escalation and cohort expansion. Part 1a of the study (dose escalation) is intended, inter alia, to evaluate the safety, PK, and PDy profile, tolerability and anti-cancer effect of the anti-TIM-3 antibody. […]
After patients received the first dose of TSR-022 at various levels (0.03-10 mg/kg), the TSR-022 concentration in serum was monitored for two weeks and the pharmacokinetic (PK) behaviors were characterized.

[2] = system: advanced or metastatic solid tumors; assay: Phase 1 dose escalation, best tumor response; type: in vivo, human
Excerpt: as §1
Patients were included with histologically or cytologically proven advanced (unresectable) or metastatic solid tumor and who had disease progression after treatment with available therapies that are known to confer clinical benefit or who are intolerant to other known treatment(s).
The study comprises several parts: dose escalation and cohort expansion. Part 1a of the study (dose escalation) is intended, inter alia, to evaluate the safety, PK, and PDy profile, tolerability and anti-cancer effect of the anti-TIM-3 antibody. A modified 3+3 design was used for dose escalation at 0.03 mg/kg, 0.1 mg/kg, 0.3 mg/kg, 1.0 mg/kg, 3 mg/kg, and 10 mg/kg and higher every 2 weeks (Q2W) with the dose of the TIM-3 antibody not to exceed 20 mg/kg. […]
The best response observed was also evaluated in efficacy evaluable patients (e.g., patients who received at least two doses and either had at least one post-baseline assessment or had discontinued treatment due to clinical progression prior to post-baseline tumor assessment. Stable disease (5/25 patients) and partial response (1/25 patients at 10 mg/kg) were observed as the best response in patients with rectal, thyroid, neuroendocrine, or head and neck cancer, or with soft tissue sarcoma.

TIM-3 = biological target: T1, TIM-3 (Homo sapiens, UniProt Q8TDQ0); assay: TIM-3 receptor occupancy on circulating CD14+ monocytes by flow cytometry; type: in vivo
T1 construct: endogenous in cells; host or cells: circulating CD14+ monocytes in patients' whole blood
Procedure: TIM-3 receptor occupancy (RO) by TSR-022 on circulating CD14^+ monocytes was measured by flow cytometry. Briefly, whole blood samples from patients treated with TSR-022 were stained with anti-CD14, a non-competing anti-TIM-3 antibody (indicating total TIM-3) and a competing anti-TIM-3 antibody (indicating unbound or free TIM-3). TIM-3 occupancy by infused TSR-022 was estimated as the ratio of free TIM-3 on CD14+ cells to the total TIM-3 on CD14+ cells. A decrease in the ratio indicates an increase in TSR-022 bound TIM-3 receptor. To measure binding in the RO assay, whole blood was collected from patients at baseline (Day 1 predose), 48 hours following the first dose (Day 3) and prior to the second dose (Day 15 predose) for the Q2W schedule. […] Samples for occupancy measurement on the Q3W schedule were collected as follows: Day 1 predose, Day 5, Day 15 and Day 22. Ex vivo TSR-022 saturated healthy donor samples (“sat”) as well as controls lacking detection antibodies (“Bkgd”) were included as controls.
FIGS. 7A-7C respectively show receptor occupancy studies of the anti-TIM-3 antibody (TSR-022) administered at doses of 1 mg/kg (FIG. 7A), 3 mg/kg (FIG. 7B), and 10 mg/kg (FIG. 7C) every two weeks (Q2W). All samples were pre-dose, with occupancy measured after a single dose on day 1. The occupancy ratio (free TIM-3:total TIM-3) is determined at various time points (for example, timepoints can include day 1, day 3, day 15, day 22, and day 29). The receptor occupancy is maximal on day 3 across doses of TSR-022.

[3] = Phase 1 dose escalation, safety and tolerability; type: in vivo
Procedure: The study comprises several parts: dose escalation and cohort expansion. Part 1a of the study (dose escalation) is intended, inter alia, to evaluate the safety, PK, and PDy profile, tolerability and anti-cancer effect of the anti-TIM-3 antibody. […] Part 1a could also comprise the testing of a “flat” dose, or a specific fixed number of milligrams of antibody (as opposed to the weight based dosing mg/kg). Flat doses could range from 200 mg to 1500 mg of anti-TIM-3 antibody. Part 1b of the study (combination with PD1 dose escalation cohorts) is intended, inter alia, to evaluate the safety, PK, and PDy profile, tolerability and anti-cancer effect of the anti-TIM-3 antibody in combination with an anti-PD-1 antibody wherein the anti-TIM-3 antibody is administered as a dose escalation. […] The anti-PD-1 antibody can be dosed at an approved dose and schedule for a marketed agent and on a weight basis at a dose of 3 or 10 mg/kg Q2W or Q3W or on a flat dose basis of 500 mg antibody Q2W or Q3W by using a modified 3+3 design.
Primary endpoints include determining the safety and tolerability of TSR-022 by Common Terminology Criteria for Adverse Events (CTCAE v4) and to determine the recommended phase 2 dose (RP2D) and schedule for monotherapy and combination with an anti-PD-1 antibody. […]

PARP activity = conditions: various cell lines, DNA damage by hydrogen peroxide, cited from earlier work

Compound	PK behavior, serum concentration versus time [1]	stable disease as best response ([2]; efficacy evaluable patients, monotherapy Part 1a, 0.03-10 mg/kg Q2W)	partial response as best response ([2]; efficacy evaluable patients, monotherapy, at 10 mg/kg)	tumor reduction ([2]; one patient with metastatic leiomyosarcoma, 3 doses at 10 mg/kg, pending confirmatory imaging) [%]	day through which maximal occupancy is maintained (TIM-3; 3 mg/kg, single dose on day 1, FIG. 7B) [days]	maintenance of maximal occupancy (TIM-3; 10 mg/kg, through the days of available data, versus 3 mg/kg, FIG. 7C)	receptor occupancy compared between regimens (TIM-3; 100 mg Q3W versus 3 mg/kg Q2W)	target coverage in the periphery (receptor occupancy) (TIM-3; 100 mg flat dose Q3W, single dose on day 1, FIG. 10)	receptor occupancy (RO) (TIM-3; 300 mg flat dose TSR-022 in combination with 500 mg flat dose TSR-042, FIG. 11)	mean occupancy ratio (free TIM-3:total TIM-3) (TIM-3; 1, 3, 10 mg/kg and flat doses of 100, 300, 1200 mg, over a range of days, FIG. 12)	receptor occupancy on peripheral monocytes versus exposure (TIM-3; patients, whole blood, FIG. 6B)	day on which receptor occupancy is maximal (TIM-3; single dose on day 1, across doses 1, 3, 10 mg/kg, FIGS. 7A-7C) [days]	MTD ([3]; dose escalation continued to 1.0 mg/kg Q2W)	tolerability ([3]; monotherapy, patients)	IC50 (PARP activity; read-out: IC50, PARP activity in cells) [nM]	IC90 (PARP activity; read-out: inhibitory concentration at 90% of control (IC90), PARP activity in cells) [nM]
TSR-022: humanized monoclonal anti-TIM-3 IgG4 antibody, heavy chain SEQ ID NO: 3, light chain SEQ ID NO: 4, S228 Ser to Pro hinge mutation	linear PK behavior	5/25	1/25	32	≥ 29	comparable results are obtained	comparable to 3 mg/kg Q2W	achieved at 100 mg for the duration of the dosing interval	high RO can be maintained over the measured time period	high occupancy ratios	correlate with TSR-022 exposure	3	a MTD has not yet been identified	well-tolerated across multiple dose levels		
NC(=O)c1cccc2cn(-c3ccc([C@@H]4CCCNC4)cc3)nc12 [Niraparib, (3S)-3-[4-{7-(aminocarbonyl)-2H-indazol-2-yl}phenyl]piperidine]															~4	~50
